Publication doi:10.1101/2022.01.14.476343

Target: Tpp49Aa1 pesticidal protein from Lysinibacillus sphaericus (Lysinibacillus sphaericus)
Test: crystal structure

“Tpp49Aa1 pesticidal protein from Lysinibacillus sphaericus (natural protein)” gave a stoichiometry N of 2.
